Patent US20200317768A1 (published 2020)

T1: human FcγRIIb extracellular domain, His-tagged (human, UniProt P31994 43-217)
T1 construct: also called FcgRIIb (human)
T1 sequence: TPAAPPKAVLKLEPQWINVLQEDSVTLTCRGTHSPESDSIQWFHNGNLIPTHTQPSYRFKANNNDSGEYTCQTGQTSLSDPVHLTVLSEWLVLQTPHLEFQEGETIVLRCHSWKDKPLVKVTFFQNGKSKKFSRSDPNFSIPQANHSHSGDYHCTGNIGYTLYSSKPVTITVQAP

T2: human FcγRIIaR extracellular domain, His-tagged (human, UniProt P12318 34-217)
T2 construct: also called human FcγRIIa (type R); FcgRIIaR
T2 chain: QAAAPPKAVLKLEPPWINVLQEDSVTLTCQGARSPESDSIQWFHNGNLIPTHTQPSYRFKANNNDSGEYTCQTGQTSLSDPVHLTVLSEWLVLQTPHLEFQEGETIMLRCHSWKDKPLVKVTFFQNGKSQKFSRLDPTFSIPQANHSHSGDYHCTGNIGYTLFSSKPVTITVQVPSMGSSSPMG

T3: cynomolgus monkey FcγRIIa1 extracellular domain, His-tagged (cynomolgus monkey)
T3 construct: also called cyno FcγRIIa1; cynoFcgRIIa1
T3 chain: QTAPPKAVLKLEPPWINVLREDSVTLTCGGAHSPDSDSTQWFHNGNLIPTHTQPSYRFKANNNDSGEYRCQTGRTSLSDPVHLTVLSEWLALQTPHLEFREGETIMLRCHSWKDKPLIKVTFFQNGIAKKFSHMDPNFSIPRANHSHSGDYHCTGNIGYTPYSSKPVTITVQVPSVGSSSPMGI

T4: human FcγRIIaH extracellular domain, His-tagged (human, UniProt P12318 34-217)
T4 construct: also called human FcγRIIa (type H); FcgRIIaH
T4 sequence: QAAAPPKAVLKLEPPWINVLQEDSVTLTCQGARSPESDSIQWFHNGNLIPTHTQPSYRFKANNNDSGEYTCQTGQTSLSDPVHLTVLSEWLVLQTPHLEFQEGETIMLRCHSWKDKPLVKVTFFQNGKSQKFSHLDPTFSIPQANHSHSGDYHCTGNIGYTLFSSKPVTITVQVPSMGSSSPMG

T5: cynomolgus monkey FcγRIIb extracellular domain, His-tagged (cynomolgus monkey)
T5 construct: also called cyno FcγRIIb; cynoFcγRIIb
T5 chain: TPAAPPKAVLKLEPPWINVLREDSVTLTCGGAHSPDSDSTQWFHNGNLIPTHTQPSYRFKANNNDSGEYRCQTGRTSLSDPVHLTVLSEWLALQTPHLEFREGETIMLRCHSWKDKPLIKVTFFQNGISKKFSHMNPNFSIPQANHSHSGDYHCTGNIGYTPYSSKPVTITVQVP

T6: cynomolgus monkey FcγRIIa2 extracellular domain, His-tagged (cynomolgus monkey)
T6 construct: also called cyno FcγRIIa2; cynoFcgRIIa2
T6 chain: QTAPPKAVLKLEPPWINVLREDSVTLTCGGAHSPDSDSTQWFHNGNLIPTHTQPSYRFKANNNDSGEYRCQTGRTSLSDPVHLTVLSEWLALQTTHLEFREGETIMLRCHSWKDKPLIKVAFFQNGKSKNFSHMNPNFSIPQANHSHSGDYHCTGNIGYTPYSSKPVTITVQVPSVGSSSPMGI

T7: cynomolgus monkey FcγRIIIaS extracellular domain, His-tagged (cynomolgus monkey, UniProt Q8SPW2 21-206 at identity 1.00))
T7 construct: also called cyno FcγRIIIaS; cynoFcγRIIIaS
T7 chain: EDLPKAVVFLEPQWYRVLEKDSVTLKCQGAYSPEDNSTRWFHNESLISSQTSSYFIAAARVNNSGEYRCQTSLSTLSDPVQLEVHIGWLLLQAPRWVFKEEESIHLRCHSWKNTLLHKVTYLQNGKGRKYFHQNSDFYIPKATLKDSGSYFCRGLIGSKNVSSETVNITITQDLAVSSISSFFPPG

T8: cynomolgus monkey FcγRIIa3 extracellular domain, His-tagged (cynomolgus monkey)
T8 construct: also called cyno FcγRIIa3; cynoFcgRIIa3
T8 chain: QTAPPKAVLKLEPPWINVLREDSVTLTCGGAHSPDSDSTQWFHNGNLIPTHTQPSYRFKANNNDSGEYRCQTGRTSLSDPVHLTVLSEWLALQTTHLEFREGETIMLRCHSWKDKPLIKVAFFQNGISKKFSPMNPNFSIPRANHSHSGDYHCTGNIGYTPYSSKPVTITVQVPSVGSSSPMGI


Tests used:
[1] = biological target: T9, human FcγRIIIaV extracellular domain, His-tagged (human, UniProt P08637 17-208); assay: SPR, antibody captured, FcgR analyte
T9 construct: also called FcgRIIIaV
T9 sequence (P08637 17-208 F176V): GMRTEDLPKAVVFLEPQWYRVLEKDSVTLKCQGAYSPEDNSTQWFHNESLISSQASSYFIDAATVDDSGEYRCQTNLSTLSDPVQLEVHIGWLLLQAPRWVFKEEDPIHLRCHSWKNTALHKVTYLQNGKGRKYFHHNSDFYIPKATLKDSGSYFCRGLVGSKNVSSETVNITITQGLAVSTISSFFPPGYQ
Protocol: (§1) The kinetic analysis of interactions between these antibodies and FcγR was carried out using BIACORE® T200 or BIACORE® 4000 (GE Healthcare). HBS-EP+ (GE Healthcare) was used as the running buffer, and the measurement temperature was set to 25° C. A chip produced by immobilizing Protein A. Protein A/G or mouse anti-human IgG kappa light chain (BD Biosciences) onto a Series S Sensor Chip CM4 or CM5 (GE Healthcare) by the amine-coupling method was used. […] After the measurement, the antibody captured on the chip was washed off by allowing reaction with 10 mM glycine-HCl, pH1.5 and 25 mM NaOH so that the chip was regenerated and used repeatedly. The sensorgrams obtained as measurement results were analyzed by the 1:1 Langmuir binding model using the BIACORE® Evaluation Software to calculate the binding rate constant ka (L/mol/s) and dissociation rate constant kd (l/s), and the dissociation constant KD (mol/L) was calculated from these values. […] Regarding such interactions, KD values were calculated using the following 1:1 binding model described in BIACORE® T100 Software Handbook BR1006-48 Edition AE.
(§2) The behavior of interacting molecules according to the 1:1 binding model on BIACORE® can be described by Equation 1: Req=C·R max/(KD+C)+RI, wherein, Req is a plot of steady-state binding levels to analyte concentration. C is concentration, RI is bulk refractive index contribution in the sample, and Rmax is analyte binding capacity of the surface. When this equation is rearranged, KD can be expressed as Equation 2: KD=C·Rmax/(Req−RI)−C. KD can be calculated by substituting the values of Rmax, RI, and C into Equation 1 or Equation 2. From the current measurement conditions, RI=0, C=2 μmol/L can be used.

[2] = biological target: T1, human FcγRIIb extracellular domain, …; assay: SPR, antibody captured, FcgR analyte
Protocol: as §1, §2

[3] = biological target: T2, human FcγRIIaR extracellular domain, …; assay: SPR, antibody captured, FcgR analyte
Protocol: as §1, §2

[4] = biological target: T3, cynomolgus monkey FcγRIIa1 …; assay: SPR, antibody captured, FcgR analyte
Protocol: as §1, §2

[5] = biological target: T4, human FcγRIIaH extracellular domain, …; assay: SPR, antibody captured, FcgR analyte
Protocol: as §1, §2

[6] = biological target: T5, cynomolgus monkey FcγRIIb extracellular …; assay: SPR, antibody captured, FcgR analyte
Protocol: as §1, §2

[7] = biological target: T6, cynomolgus monkey FcγRIIa2 …; assay: SPR, antibody captured, FcgR analyte
Protocol: as §1, §2

[8] = biological target: T7, cynomolgus monkey FcγRIIIaS …; assay: SPR, antibody captured, FcgR analyte
Protocol: as §1, §2

[9] = biological target: T8, cynomolgus monkey FcγRIIa3 …; assay: SPR, antibody captured, FcgR analyte
Protocol: as §1, §2

[10] = biological target: T9, human FcγRIIIaV extracellular domain, …; assay: SPR; KD of SG1 / KD of variant;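 also: relative to parent M103205H795-SG1 carrying the SG1 human heavy chain constant region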
[11] = biological target: T1, human FcγRIIb extracellular domain, …; assay: SPR; KD of SG1 / KD of variant;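 also: relative to parent M103205H795-SG1 carrying the SG1 human heavy chain constant region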
[12] = biological target: T3, cynomolgus monkey FcγRIIa1 …; assay: SPR; KD of SG1 / KD of variant;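 also: relative to parent M103205H795-SG1 carrying the SG1 human heavy chain constant region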
[13] = biological target: T4, human FcγRIIaH extracellular domain, …; assay: SPR; KD of SG1 / KD of variant;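 also: relative to parent M103205H795-SG1 carrying the SG1 human heavy chain constant region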
[14] = biological target: T5, cynomolgus monkey FcγRIIb extracellular …; assay: SPR; KD of SG1 / KD of variant
[15] = biological target: T6, cynomolgus monkey FcγRIIa2 …; assay: SPR; KD of SG1 / KD of variant
[16] = biological target: T7, cynomolgus monkey FcγRIIIaS …; assay: SPR; KD of SG1 / KD of variant
[17] = biological target: T8, cynomolgus monkey FcγRIIa3 …; assay: SPR; KD of SG1 / KD of variant

Kd [1] [nM]	Kd [2] [nM]	Kd [3] [nM]	Kd [4] [nM]	Kd [5] [nM]	Kd [6] [nM]	Kd [7] [nM]	Kd [8] [nM]	Kd [9] [nM]	KD fold (SG1 = 1) [10] [fold]	KD fold (SG1 = 1) [11] [fold]	KD fold (SG1 = 1) [12] [fold]	KD fold (SG1 = 1) [13] [fold]	KD fold (SG1 = 1) [14] [fold]	KD fold (SG1 = 1) [15] [fold]	KD fold (SG1 = 1) [16] [fold]	KD fold (SG1 = 1) [17] [fold]	Binder
480	900	230	2100	440	1100	2300	200	7900	1.69	5.3	1.5	1.6	1.6	2.2	1.8	2.2	M103205H795-MY012/M103202L889-SK1 (antibody, human IgG1, kappa, Put into M103205H795-SG1) heavy: not shown light: DIVMTQSPATLSLSPGERATLSCTSSQSVYHANWLSWFQQKPGQPPKLLIYWASTLAYGVPSRFSGSGSGTDFTLTISSLQPEDAATYYCAGGYGGGRYAFGQGTKVEIKRTVAAPSVFIFPPSDEQLKSGTASVVCLLNNFYPREAKVQWKVDNALQSGNSQESVTEQDSKDSTYSLSSTLTLSKADYEKHKVYACEVTHQGLSSPVTKSFNRGEC
200	2800	760	2100	530	1100	2300	100	6700	–	–	–	–	–	–	–	–	M103205H795-MY067/M103202L889-SK1 (antibody, human IgG1, kappa, Substitution put into M103205H795-SG1) heavy: not shown light: DIVMTQSPATLSLSPGERATLSCTSSQSVYHANWLSWFQQKPGQPPKLLIYWASTLAYGVPSRFSGSGSGTDFTLTISSLQPEDAATYYCAGGYGGGRYAFGQGTKVEIKRTVAAPSVFIFPPSDEQLKSGTASVVCLLNNFYPREAKVQWKVDNALQSGNSQESVTEQDSKDSTYSLSSTLTLSKADYEKHKVYACEVTHQGLSSPVTKSFNRGEC
140	940	280	2700	450	580	2900	98	5500	5.79	4.9	1.2	1.5	2.6	1.8	3.67	3.2	M103205H795-MY017/M103202L889-SK1 (antibody, human IgG1, kappa, Substitution put into M103205H795-SG1) heavy: not shown light: DIVMTQSPATLSLSPGERATLSCTSSQSVYHANWLSWFQQKPGQPPKLLIYWASTLAYGVPSRFSGSGSGTDFTLTISSLQPEDAATYYCAGGYGGGRYAFGQGTKVEIKRTVAAPSVFIFPPSDEQLKSGTASVVCLLNNFYPREAKVQWKVDNALQSGNSQESVTEQDSKDSTYSLSSTLTLSKADYEKHKVYACEVTHQGLSSPVTKSFNRGEC
3000	2500	1300	6500	1400	4200	–	3400	18000	0.27	1.8	0.5	0.5	0.6	0.8	0.11	0.5	M103205H795-MY061/M103202L889-SK1 (antibody, human IgG1, kappa, Substitution put into M103205H795-SG1) heavy: not shown light: DIVMTQSPATLSLSPGERATLSCTSSQSVYHANWLSWFQQKPGQPPKLLIYWASTLAYGVPSRFSGSGSGTDFTLTISSLQPEDAATYYCAGGYGGGRYAFGQGTKVEIKRTVAAPSVFIFPPSDEQLKSGTASVVCLLNNFYPREAKVQWKVDNALQSGNSQESVTEQDSKDSTYSLSSTLTLSKADYEKHKVYACEVTHQGLSSPVTKSFNRGEC
290	2800	970	2100	640	1400	2800	160	5700	–	–	–	–	–	–	–	–	M103205H795-MY066/M103202L889-SK1 (antibody, human IgG1, kappa, Substitution put into M103205H795-SG1) heavy: not shown light: DIVMTQSPATLSLSPGERATLSCTSSQSVYHANWLSWFQQKPGQPPKLLIYWASTLAYGVPSRFSGSGSGTDFTLTISSLQPEDAATYYCAGGYGGGRYAFGQGTKVEIKRTVAAPSVFIFPPSDEQLKSGTASVVCLLNNFYPREAKVQWKVDNALQSGNSQESVTEQDSKDSTYSLSSTLTLSKADYEKHKVYACEVTHQGLSSPVTKSFNRGEC
